Our source for the EC50 and MCF values is patent US20250388672A1.

Test [1] concerns the target human CD3 expressed on HEK293H cells (human) (UniProt P20963). The experiment in a line: flow cytometry on HEK293H cells expressing human CD3. On the technique in general: Flow cytometry measures light scatter and fluorescence of single cells or particles in a stream.
Test [2] addresses human TCR(2IAN)/CD3 expressed on HEK293H cells (human) (UniProt P04234). The experiment in a line: flow cytometry on HEK293H cells expressing human TCR(2IAN)/CD3.
Test [3] has as its target human TCR/CD3 complex on purified primary human T cells (human). The experiment in a line: flow cytometry on primary human T cells.

human CD3 expressed on HEK293H cells (human), sequence (chain, as listed by the source limits assumed, chain 1 of 4): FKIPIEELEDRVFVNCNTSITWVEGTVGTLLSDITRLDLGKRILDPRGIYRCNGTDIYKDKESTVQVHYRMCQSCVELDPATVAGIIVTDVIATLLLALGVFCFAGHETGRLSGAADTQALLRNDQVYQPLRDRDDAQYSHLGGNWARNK
human CD3 expressed on HEK293H cells (human), sequence (chain, as listed by the source limits assumed, chain 2 of 4): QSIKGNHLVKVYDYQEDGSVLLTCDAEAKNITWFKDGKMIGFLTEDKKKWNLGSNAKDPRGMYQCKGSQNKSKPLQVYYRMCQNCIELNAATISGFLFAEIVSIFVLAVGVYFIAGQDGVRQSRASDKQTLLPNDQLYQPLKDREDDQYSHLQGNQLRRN
human CD3 expressed on HEK293H cells (human), sequence (chain, as listed by the source limits assumed, chain 3 of 4): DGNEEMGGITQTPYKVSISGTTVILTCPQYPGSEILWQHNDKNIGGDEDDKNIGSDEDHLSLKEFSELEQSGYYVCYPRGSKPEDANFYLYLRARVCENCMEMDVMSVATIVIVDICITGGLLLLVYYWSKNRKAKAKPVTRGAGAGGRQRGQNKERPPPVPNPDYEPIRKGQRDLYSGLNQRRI
human CD3 expressed on HEK293H cells (human), sequence (P20963 22-164 limits assumed, chain 4 of 4): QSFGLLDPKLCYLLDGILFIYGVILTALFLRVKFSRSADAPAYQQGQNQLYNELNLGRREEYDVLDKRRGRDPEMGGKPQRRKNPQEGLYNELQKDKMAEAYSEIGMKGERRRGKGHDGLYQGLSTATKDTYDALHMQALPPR
human TCR/CD3 complex on purified primary human T cells (human), sequence (delta, as listed by the source limits assumed, form in doubt, chain 1 of 4): as the sequence (chain, as listed by the source limits assumed, chain 1 of 4) above
human TCR/CD3 complex on purified primary human T cells (human), sequence (gamma, as listed by the source limits assumed, form in doubt, chain 2 of 4): as the sequence (chain, as listed by the source limits assumed, chain 2 of 4) above
human TCR/CD3 complex on purified primary human T cells (human), sequence (epsilon, as listed by the source limits assumed, form in doubt, chain 3 of 4): as the sequence (chain, as listed by the source limits assumed, chain 3 of 4) above
human TCR/CD3 complex on purified primary human T cells (human), sequence (zeta, as listed by the source limits assumed, form in doubt, chain 4 of 4): as the sequence (P20963 22-164 limits assumed, chain 4 of 4) above

B1: T0170052G04 (VHH, not shown: small tags and cut ends)
VHH: EVQLVESGGGAVQPGGSLRLSCAASGIRISRNMMGWFRQAPGKQRDLVARITPGGDTYYVDSVKGRFSISKDNAKNTVYLQMNSLKPEDTAVYYCNSYSTLGSWGQGTQVTVSS
In test [1], B1 showed an EC50 above 100 nM and an MCF at 1 µM/top of 2850 MCF. In test [2], this molecule displayed an EC50 above 100 nM and an MCF at 1 µM/top of 4950 MCF.

B2: T017000016 (bispecific antibody)
chain: EVQLVESGGGLVQPGGSLRLSCTFSGGTFSSYTMGWFRQAPGKEREFVAEVRWGGVTTYSNSLKDRFSISEDSVKNAVYLQMNSLKPEDTAVYYCAAVRQMYMTVVPDYWGQGTLVTVSSGGGGSGGGGSGGGGSGGGGSGGGGSGGGGSGGGGSEVQLVESGGGSVQAGGSLRLSCAASGRTFSTNPMGWFRQVPGKERELIAAVRWADGNTFYADSVKGRFTISRDNAKKTVYLQMNSLKSEDTATYYCAAGRPWSAYHSPAEYVHWGQGTLVTVSSGAADYKDHDGDYKDHDIDYKDDDDKGAAHHHHHH
In test [3], B2 came in with an EC50 above 100 nM.

B3: T0170011A10 (VHH, not shown: small tags and cut ends)
VHH: EVQLVESGGGLVQGGGSLSLSCAASGRTFSSYAMAWFRQPPGKEREFVASISWSGENTNYRNSVKGRFTISRDNAKNTVYLQMNSLKPEDTAVYYCAAKIAKTYPDNWYWTKSNNYNYWGQGTQVTVSS
As to B3, the EC50 in test [1] and in test [2] was above 100 nM in each case. The MCF at 1 µM/top in test [1] came out at 3300 MCF; in test [2], 15900 MCF.

As usually defined, the EC50 is the midpoint of the concentration-response curve.
